Molecular target: CD3 on T lymphocytes (human (endogenous in T lymphocytes from PBMCs)) (UniProt P07766)
Experiment: FACS; dimer; binding to T lymphocytes

Chain of UniProt P07766 (P07766 23-207): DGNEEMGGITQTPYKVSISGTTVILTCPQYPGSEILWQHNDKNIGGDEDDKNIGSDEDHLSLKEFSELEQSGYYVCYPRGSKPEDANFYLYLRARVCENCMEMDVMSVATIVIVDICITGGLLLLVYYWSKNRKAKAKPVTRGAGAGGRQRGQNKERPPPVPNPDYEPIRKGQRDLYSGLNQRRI

An EC50 of 0.17 µg/mL was found for “dimeric γδ_(ECTO)-αCD3 (AJ8 TCR, 3(G4S) linker), purified dimer fraction (from UniProt Q99603)” in this work.

Reference: publication PMC9851377
